The target of data set [1] is ATL2 (6His-tagged cytoplasmic / soluble domain, ATL2 1–467) (Homo sapiens, UniProt Q8NHH9). Kind of data set: SEC dimer shift. The settings on record: 2 mM GMPPNP (SEC, cross-linking) or 1 mM (EM); 30 min RT. Type of data set: binding.
Substrate in data set [2]: Nc1nc2c(ncn2[C@@H]2O[C@H](COP(=O)(O)OP(=O)(O)OP(=O)(O)O)[C@@H](O)[C@H]2O)c(=O)[nH]1
Kind of data set: malachite green phosphate release, Lineweaver-Burk. Type of data set: biochemical, Homo sapiens. The conditions noted are these: 1 µM enzyme, 5, 10, 20 µM GTP, 37 °C.

In the case of `Nc1nc2c(ncn2[C@@H]2O[C@H](COP(=O)(O)OP(=O)(O)NP(=O)(O)O)[C@@H](O)[C@H]2O)c(=O)[nH]1` [GMPPNP, guanosine 5′-[β,γ-imido]triphosphate], the “SEC dimer shift (Superdex 200), BMOE cross-linking, negative-stain EM” value in data set [1] is on record as “wild-type ATL2 formed dimers in the presence, but not in the absence, of GMPPNP”.

B1: ATL2 (6His-tagged cytoplasmic / soluble domain, ATL2 1–467) (Homo sapiens) (protein)
chain: MAEGDEAARGQQPHQGLWRRRRTSDPSAAVNHVSSTTSLGENYEDDDLVNSDEVMKKPCPVQIVLAHEDDHNFELDEEALEQILLQEHIRDLNIVVVSVAGAFRKGKSFLLDFMLRYMYNKDSQSWIGGNNEPLTGFTWRGGCERETTGIQVWNEVFVIDRPNGTKVAVLLMDTQGAFDSQSTIKDCATVFALSTMTSSVQVYNLSQNIQEDDLQHLQLFTEYGRLAMEEIYQKPFQTLMFLIRDWSYPYEHSYGLEGGKQFLEKRLQVKQNQHEELQNVRKHIHNCFSNLGCFLLPHPGLKVATNPSFDGRLKDIDEDFKRELRNLVPLLLAPENLVEKEISGSKVTCRDLVEYFKAYIKIYQGEELPHPKSMLQATAEANNLAAVAGARDTYCKSMEQVCGGDKPYIAPSDLERKHLDLKEVAIKQFRSVKKMGGDEFCRRYQDQLEAEIEETYANFIKHNDGKN
Regarding B1, the Michaelis-Menten constant (Km) in data set [2] is recorded as 34 µM.

B2: ATL2 (6His-tagged cytoplasmic / soluble domain, ATL2 1–467) (Homo sapiens; E380R/K372E) (protein)
chain: MAEGDEAARGQQPHQGLWRRRRTSDPSAAVNHVSSTTSLGENYEDDDLVNSDEVMKKPCPVQIVLAHEDDHNFELDEEALEQILLQEHIRDLNIVVVSVAGAFRKGKSFLLDFMLRYMYNKDSQSWIGGNNEPLTGFTWRGGCERETTGIQVWNEVFVIDRPNGTKVAVLLMDTQGAFDSQSTIKDCATVFALSTMTSSVQVYNLSQNIQEDDLQHLQLFTEYGRLAMEEIYQKPFQTLMFLIRDWSYPYEHSYGLEGGKQFLEKRLQVKQNQHEELQNVRKHIHNCFSNLGCFLLPHPGLKVATNPSFDGRLKDIDEDFKRELRNLVPLLLAPENLVEKEISGSKVTCRDLVEYFKAYIKIYQGEELPHPESMLQATARANNLAAVAGARDTYCKSMEQVCGGDKPYIAPSDLERKHLDLKEVAIKQFRSVKKMGGDEFCRRYQDQLEAEIEETYANFIKHNDGKN
On to B2, for which, in data set [2], the Km is 44 µM.

The record behind these values is article PMC3257528 (The Journal of Cell Biology, 2011).
